Measured values: US12630600B2 (MEDIMMUNE LIMITED, priority 2022, dated 2026)
Starred links: 1 amine or outer side, 2 acyl side, 3 side chain; linkers in the order of their positions; H or OH if unused. Non-standard residues stand in square brackets, D forms with d. Groups on a side chain read outwards from the residue. No end group written: not given here. *: point of attachment. C20 diacid = O=C(O)CCCCCCCCCCCCCCCCCCC(=O)*; C18 diacid = O=C(O)CCCCCCCCCCCCCCCCC(=O)*; γGlu = O=C(O)[C@H](CCC(=O)[*:2])N[*:1]; αMeF = C[C@](N)(Cc1ccccc1)C(=O)O; AEEA = NCCOCCOCC(=O)O; Aib = CC(C)(N)C(=O)O

What was measured:
human GLP-1 receptor = human GLP-1 receptor (human, UniProt P43220); test: cell-based or functional assay
human glucagon receptor = human glucagon receptor (human, UniProt P47871); test: cell-based or functional assay

Binder	cAMP production EC50 (human GLP-1 receptor) [nM]	cAMP production EC50 (human glucagon receptor) [nM]
H[Aib]QGTFTSDVSK[αMeF]LDKK([AEEA-AEEA-γGlu-γGlu-C18 diacid])RARDFVRWLL[Aib]E-OH (N-terminus assumed; SMILES CC(C)C[C@H](NC(=O)[C@H](Cc1c[nH]c2ccccc12)NC(=O)[C@H](CCCNC(=N)N)NC(=O)[C@@H](NC(=O)[C@H](Cc1ccccc1)NC(=O)[C@H](CC(=O)O)NC(=O)[C@H](CCCNC(=N)N)NC(=O)[C@H](C)NC(=O)[C@H](CCCNC(=N)N)NC(=O)[C@H](CCCCNC(=O)COCCOCCNC(=O)COCCOCCNC(=O)CC[C@H](NC(=O)CC[C@H](NC(=O)CCCCCCCCCCCCCCCCC(=O)O)C(=O)O)C(=O)O)NC(=O)[C@H](CCCCN)NC(=O)[C@H](CC(=O)O)NC(=O)[C@H](CC(C)C)NC(=O)[C@](C)(Cc1ccccc1)NC(=O)[C@H](CCCCN)NC(=O)[C@H](CO)NC(=O)[C@@H](NC(=O)[C@H](CC(=O)O)NC(=O)[C@H](CO)NC(=O)[C@@H](NC(=O)[C@H](Cc1ccccc1)NC(=O)[C@@H](NC(=O)CNC(=O)[C@H](CCC(N)=O)NC(=O)C(C)(C)NC(=O)[C@@H](N)Cc1c[nH]cn1)[C@@H](C)O)[C@@H](C)O)C(C)C)C(C)C)C(=O)N[C@@H](CC(C)C)C(=O)NC(C)(C)C(=O)N[C@@H](CCC(=O)O)C(=O)O) [Peptide 448]	0.0531	0.029
H[Aib]QGTFTSDVSK[αMeF]LETK([AEEA-AEEA-γGlu-C18 diacid])RARDFVQWLLE[Aib]G-OH (not fully specified) [Peptide 444]	0.247	1.76
H[Aib]QGTFTSDVSK[αMeF]LETK([AEEA-AEEA-γGlu-C18 diacid])RARDFVQWLLE[Aib]G-OH [Peptide 445]	0.033	0.684

Next, values leading:

cAMP production EC50 (human GLP-1 receptor) [nM]	cAMP production EC50 (human glucagon receptor) [nM]	Binder
0.17	0.667	H[Aib]QGTFTSDVSK[αMeF]LDRK([AEEA-AEEA-γGlu-γGlu-C20 diacid])RAQDFVRWLV[Aib]E-NH2 (N-terminus assumed; SMILES CC(C)C[C@H](NC(=O)[C@H](Cc1c[nH]c2ccccc12)NC(=O)[C@H](CCCNC(=N)N)NC(=O)[C@@H](NC(=O)[C@H](Cc1ccccc1)NC(=O)[C@H](CC(=O)O)NC(=O)[C@H](CCC(N)=O)NC(=O)[C@H](C)NC(=O)[C@H](CCCNC(=N)N)NC(=O)[C@H](CCCCNC(=O)COCCOCCNC(=O)COCCOCCNC(=O)CC[C@H](NC(=O)CC[C@H](NC(=O)CCCCCCCCCCCCCCCCCCC(=O)O)C(=O)O)C(=O)O)NC(=O)[C@H](CCCNC(=N)N)NC(=O)[C@H](CC(=O)O)NC(=O)[C@H](CC(C)C)NC(=O)[C@](C)(Cc1ccccc1)NC(=O)[C@H](CCCCN)NC(=O)[C@H](CO)NC(=O)[C@@H](NC(=O)[C@H](CC(=O)O)NC(=O)[C@H](CO)NC(=O)[C@@H](NC(=O)[C@H](Cc1ccccc1)NC(=O)[C@@H](NC(=O)CNC(=O)[C@H](CCC(N)=O)NC(=O)C(C)(C)NC(=O)[C@@H](N)Cc1c[nH]cn1)[C@@H](C)O)[C@@H](C)O)C(C)C)C(C)C)C(=O)N[C@H](C(=O)NC(C)(C)C(=O)N[C@@H](CCC(=O)O)C(N)=O)C(C)C) [Peptide 447]
0.207	0.242	H[Aib]QGTFTSDVSK[αMeF]LDTK([AEEA-AEEA-γGlu-γGlu-C20 diacid])RARDFVQWLLE[Aib]G-OH (N-terminus assumed; SMILES CC(C)C[C@H](NC(=O)[C@H](Cc1c[nH]c2ccccc12)NC(=O)[C@H](CCC(N)=O)NC(=O)[C@@H](NC(=O)[C@H](Cc1ccccc1)NC(=O)[C@H](CC(=O)O)NC(=O)[C@H](CCCNC(=N)N)NC(=O)[C@H](C)NC(=O)[C@H](CCCNC(=N)N)NC(=O)[C@H](CCCCNC(=O)COCCOCCNC(=O)COCCOCCNC(=O)CC[C@H](NC(=O)CC[C@H](NC(=O)CCCCCCCCCCCCCCCCCCC(=O)O)C(=O)O)C(=O)O)NC(=O)[C@@H](NC(=O)[C@H](CC(=O)O)NC(=O)[C@H](CC(C)C)NC(=O)[C@](C)(Cc1ccccc1)NC(=O)[C@H](CCCCN)NC(=O)[C@H](CO)NC(=O)[C@@H](NC(=O)[C@H](CC(=O)O)NC(=O)[C@H](CO)NC(=O)[C@@H](NC(=O)[C@H](Cc1ccccc1)NC(=O)[C@@H](NC(=O)CNC(=O)[C@H](CCC(N)=O)NC(=O)C(C)(C)NC(=O)[C@@H](N)Cc1c[nH]cn1)[C@@H](C)O)[C@@H](C)O)C(C)C)[C@@H](C)O)C(C)C)C(=O)N[C@@H](CC(C)C)C(=O)N[C@@H](CCC(=O)O)C(=O)NC(C)(C)C(=O)NCC(=O)O) [Peptide 449]
0.0206	0.0224	H[Aib]QGTFTSDVSK[αMeF]LDKK([AEEA-AEEA-γGlu-C18 diacid])RARDFVRWLL[Aib]E-NH2 (N-terminus assumed; SMILES CC(C)C[C@H](NC(=O)[C@H](Cc1c[nH]c2ccccc12)NC(=O)[C@H](CCCNC(=N)N)NC(=O)[C@@H](NC(=O)[C@H](Cc1ccccc1)NC(=O)[C@H](CC(=O)O)NC(=O)[C@H](CCCNC(=N)N)NC(=O)[C@H](C)NC(=O)[C@H](CCCNC(=N)N)NC(=O)[C@H](CCCCNC(=O)COCCOCCNC(=O)COCCOCCNC(=O)CC[C@H](NC(=O)CCCCCCCCCCCCCCCCC(=O)O)C(=O)O)NC(=O)[C@H](CCCCN)NC(=O)[C@H](CC(=O)O)NC(=O)[C@H](CC(C)C)NC(=O)[C@](C)(Cc1ccccc1)NC(=O)[C@H](CCCCN)NC(=O)[C@H](CO)NC(=O)[C@@H](NC(=O)[C@H](CC(=O)O)NC(=O)[C@H](CO)NC(=O)[C@@H](NC(=O)[C@H](Cc1ccccc1)NC(=O)[C@@H](NC(=O)CNC(=O)[C@H](CCC(N)=O)NC(=O)C(C)(C)NC(=O)[C@@H](N)Cc1c[nH]cn1)[C@@H](C)O)[C@@H](C)O)C(C)C)C(C)C)C(=O)N[C@@H](CC(C)C)C(=O)NC(C)(C)C(=O)N[C@@H](CCC(=O)O)C(N)=O) [Peptide 443]
0.0329	0.366	H[Aib]QGTFTSDVSK[αMeF]LDRK([AEEA-AEEA-γGlu-γGlu-C18 diacid])RAQDFVRWLV[Aib]E-NH2 (N-terminus assumed; SMILES CC(C)C[C@H](NC(=O)[C@H](Cc1c[nH]c2ccccc12)NC(=O)[C@H](CCCNC(=N)N)NC(=O)[C@@H](NC(=O)[C@H](Cc1ccccc1)NC(=O)[C@H](CC(=O)O)NC(=O)[C@H](CCC(N)=O)NC(=O)[C@H](C)NC(=O)[C@H](CCCNC(=N)N)NC(=O)[C@H](CCCCNC(=O)COCCOCCNC(=O)COCCOCCNC(=O)CC[C@H](NC(=O)CC[C@H](NC(=O)CCCCCCCCCCCCCCCCC(=O)O)C(=O)O)C(=O)O)NC(=O)[C@H](CCCNC(=N)N)NC(=O)[C@H](CC(=O)O)NC(=O)[C@H](CC(C)C)NC(=O)[C@](C)(Cc1ccccc1)NC(=O)[C@H](CCCCN)NC(=O)[C@H](CO)NC(=O)[C@@H](NC(=O)[C@H](CC(=O)O)NC(=O)[C@H](CO)NC(=O)[C@@H](NC(=O)[C@H](Cc1ccccc1)NC(=O)[C@@H](NC(=O)CNC(=O)[C@H](CCC(N)=O)NC(=O)C(C)(C)NC(=O)[C@@H](N)Cc1c[nH]cn1)[C@@H](C)O)[C@@H](C)O)C(C)C)C(C)C)C(=O)N[C@H](C(=O)NC(C)(C)C(=O)N[C@@H](CCC(=O)O)C(N)=O)C(C)C) [Peptide 446]
